According to patent US20100216187A1 (published 2010):
Positions count from the first letter of the chain named.

B1: Nanobody 4C8 (VHH)
VHH: EVQLVESGGGLVQAGDSLRLSCAASGRTYTPYVMGWFRRAPGKEREFVGAVSWSGTNTWYTDSVKGRFTISRDNAKNTVYLQMNSLKPEDTAVYYCAAGDGVGIYRYEHQYDYWGQGTQVTVSS
B2: Nanobody 4C3 (VHH)
VHH: EVQLVESGGGLVQAGGSLRLSCAASGRTFSSYAMAWFRQAPGEEREFVATISVSGGYTYYADSVKGRFTISRDNAKNTVYLQMNTLKPEDTAVYYCAAGDSSSWLEHMYDYWGQGTQVTVSS
B3: Nanobody 4B6 (VHH)
VHH: KVQLVESGGGLVQVGGSLRLSCVASGRTYGGNAMAWFRQAPGKEREFVAGIDWSSENTRYTDSVKGRFTISRDNAKNTMYLQMNSLKPEDTAVYYCAAGTSWGALASRLENAYSAWGQGTQVTVSS
B4: Nanobody 4D4 (VHH)
VHH: EVQLVESGGGLVQAGDSLRLSCAASGRTFSPYVMGWFRRAPGKEREFVGGINWSGSNTWYTDSVKGRFTISRDNVKNMVYLQMNSLKPEDTAVYYCAAGSGVGMYRYERQYDYWGQGTQVTVSS
B5: Nanobody 4C5 (VHH)
VHH: EVQLVESGGGLVQAGDSLRLSCAASGRPFSAYVMGWFRRAPGKEREFVGGINWNSANTWYTDSVLGRFTISKDNAKNTVYLQMNSLKPEDTAVYYCAAAGGVGYYRYERQYDYWGQGTQVTVSS
B6: Nanobody 4D10 (VHH)
VHH: EVQLVESGGGLVQAGDSLRLSCTASERPFMSYVMGWFRRAPGKDREFVGAITWSGINTWYSDSVLGRFTISRDNAKNTVYLQMNSLKPEDTAVYYCAVADGVGLYRYERQYDYWGQGTQVTVSS
B7: Nanobody 4B8 (VHH)
VHH: B3 VHH with K1E, V14A, V23A, R27G, G30S, T61I, N111A, A115S
B8: Nanobody 4C4 (VHH)
VHH: B5 VHH with S30M, A31S, N54G, A56G, K72R, A98T, G100A
B9: Nanobody 4D7 (VHH)
VHH: B5 VHH with A31S, A56G, T61S, K72R, Y80D, A98T, G100S
B10: Nanobody 4B5 (VHH)
VHH: B3 VHH with K1E, V14A, G16D, V23A, G30S, G31R, T61I, N77S, N111A, A115S
B11: Nanobody 4D5 (VHH)
VHH: EVQLVESGGGLVQAGGSLRLSCAASGLSFSKYAMGWFRQAPGKQREYVAVISSSDTTYYTNSAKGRFTISRDNAENTVYLQMNSLKPEDTAVYFCAADSYVTALQTLTQISYWGQGTQVTVSS
B12: Nanobody 4C11 (VHH)
VHH: B11 VHH with K31R, Y100F, S111N
B13: Nanobody 4B1 (VHH)
VHH: EVQLVESGGGLVQPGGSLRLSCVAAGFTLDYYAIGWFRQAPGKEREGVSCITSDGRTYYADSVKGRFTISRDMAKKMVYLQMNSLKPEDTAVYYCAAGACMGGSGYEADFGSWGQGTQVTVSS
B14: Nanobody 4B10 (VHH)
VHH: EVQLVESGGGLVQAGDSLRLSCAASGRTFSSYAMGWFRQAPGTERQFVARITGKGDSTDYADSVRGRFTISRDNAKNTVYLQMNSLKPEDTAVYYCAADAFNSLLQAGRAEYWGQGTQVTVSS
B15: Nanobody 4A9 (VHH)
VHH: EVQLVESGGGLVQAGGSLRLSCEASGFTLDYSGVGWFRQAPGKERELVSCISRGGDRAGYANSVKGRFTMSRDNAKNILYLQMNSLKPEDTAVYYCAATHSGSGCYDGAIDYWGKGTLVTVSS
B16: Nanobody 4A6 (VHH)
VHH: B13 VHH with V23A, A25S, G26P, I51S, D54H, R56K, Y59H, M73N, K76N, M77T
B17: Nanobody 4C9 (VHH)
VHH: EVQLVESGGGLVQAGDSLRLSCTASERPFSTYVMGWFRRAPGKEREFVGGITWSGINAWYTDSVLGRFTISSDNAKNTVYLQMNSLKPEDTAVYYCAAASGVGRYRYELQYDYWGQGTQVTVSS

Molecular target: T1, human serum albumin (human, UniProt P02768 25-609)
T1 construct: Bought serum albumin; also called HSA; antigen
Test: SPR (Biacore), ratio of the off rates at the two pH

Row | Binder | Ratio pH 7/pH 5 (of kd)
1 | B1 | 3.35
2 | B2 | 3.35
3 | B3 | 3.23
4 | B4 | 2.76
5 | B5 | 2.44
6 | B6 | 6.52
7 | B7 | 2.43
8 | B8 | 2.42
9 | B9 | 2.42
10 | B10 | 2.32
11 | B11 | 1.29
12 | B12 | 1.19
13 | B13 | 0.88
14 | B14 | 0.87
15 | B15 | 0.54
16 | B16 | 5.77
17 | B17 | 3.88
